Assay [1] deals with GST-C2B fusion protein of synaptotagmin I with the syt^B-IE mutation (I420E) (Drosophila). The assay can be described thus: pull-down.
For assay [2], the target named is GST-C2B fusion protein of synaptotagmin I (wild type) (Drosophila). The assay can be described thus: pull-down.
For assay [3], the target named is GST-C2AB fusion protein of synaptotagmin I with the syt^B-IE mutation (I420E) (Drosophila). The assay can be described thus: pull-down.
Assay [4] deals with GST-C2AB fusion protein of synaptotagmin I (wild type) (Drosophila). The assay can be described thus: pull-down.
Assay [5] deals with full length t-SNAREs. The assay can be described thus: co-flotation.

Turning to full length t-SNAREs (complex), the increase of binding by Ca2+ over EGTA in assay [1] was found to be 0.105 units; in assay [2], 0.116 units; in assay [3] it was 0.112 units; in assay [4] it was 0.2 units. Also, the figures for the fold increase of binding by Ca2+ over EGTA in assay [3] and in assay [4] were 4.5 fold and 2.4 fold, respectively.
Regarding “synaptotagmin C2AB domain with the syt^B-IE mutation (I420E), as used in the co-flotation assay (domain or fragment)”, the percent of wild type binding (% of wild type levels) in assay [5] was found to be 70.

For the origin of these results see PMC3092483.
